For assay [1], the target named is insulin/IGF-I hybrid receptor isoform A (Hybrid-RsA) (UniProt P08069). Briefly: displacement of 125I-IGF1 from immunocaptured Hybrid-RsA. On the technique in general: In a radioligand displacement assay an active substance lowers the binding of a labelled ligand.
Assay [2] deals with T1, extracellular domain of human insulin-like growth factor-1 receptor (hIGF-IR) (human, UniProt P08069 31-935).
T1 construct: extracellular domain; also called hIGF1-R; Human Insulin-Like Growth Factor I soluble Receptor (R & D Systems #391-GR)
Briefly: ELISA on coated soluble IGF-IR, cos7 supernatants.

Assay [3] concerns the target T1, extracellular domain of human …. As to the kind of experiment: SPR (BIAcore X), antibody captured by anti-Fc on a CM5 chip, hIGF-IR extracellular domain as analyte at 12.5-200 nM, 25°C. (In general: Surface plasmon resonance follows binding to a sensor surface in real time, without labels.)

Our source for the IC50, binding result and Kd values is patent publication WO2005058967A2 (dated 2005).

As usually defined, the IC50 is the midpoint of a concentration-inhibition curve. In assay [1], monoclonal antibody 1H7 gave an IC50 of less than 50 nM.

B1: humanized 7C10 VL 2 combined with humanized 7C10 VH 2 (antibody, human IgG1, V domains shown)
VH: QVQLQESGPGLVKPSETLSLTCTVSGYSITGGYLWNWIRQPPGKGLEWIGYISYDGTNNYKPSLKDRVTISRDTSKNQFSLKLSSVTAADTAVYYCARYGRVFFDYWGQGTLVTVSS
VL: DIVMTQSPLSLPVTPGEPASISCRSSQSIVHSNGNTYLQWYLQKPGQSPQLLIYKVSNRLYGVPDRFSGSGSGTDFTLKISRVEAEDVGVYYCFQGSHVPWTFGQGTKVEIK
notes: Human IgG1/kappa, cos7 supernatant; also called 7C10 hum 2 heavy chain with humanized 7C10 VL 2
On to B1, for which the binding result in assay [2] is “binds”.

B2: A2CHM Mab (antibody, V domains shown)
VH: QVQLQESGPGLVKPSETLSLTCTVSGYSISGGYLWNWIRQPPGKGLEWIGYISYDGTNNYKPSLKDRVTISVDTSKNQFSLKLSSVTAADTAVYYCARYGRVFFDYWGQGTLVTVSS
VL: DIVMTQSPLSLPVTPGEPASISCRSSQSIVHSNGNTYLQWYLQKPGQSPQLLIYKVSNRLYGVPDRFSGSGSGTDFTLKISRVEAEDVGVYYCFQGSHVPWTFGQGTKVEIK
Usually Kd stands for the free concentration of one partner at which half of the binding sites on the other are occupied at equilibrium, for simple one-to-one binding. Read a low Kd as a tighter complex. Consider B2, for which binding in assay [3] was characterised by a dissociation constant (Kd) of 0.86 nM.

B3: humanized 7C10 VL 2 combined with humanized 7C10 VH 3 (antibody, human IgG1, V domains shown)
VH: QVQLQESGPGLVKPSETLSLTCTVSGYSISGGYLWNWIRQPPGKGLEWIGYISYDGTNNYKPSLKDRVTISVDTSKNQFSLKLSSVTAADTAVYYCARYGRVFFDYWGQGTLVTVSS
VL: DIVMTQSPLSLPVTPGEPASISCRSSQSIVHSNGNTYLQWYLQKPGQSPQLLIYKVSNRLYGVPDRFSGSGSGTDFTLKISRVEAEDVGVYYCFQGSHVPWTFGQGTKVEIK
notes: Human IgG1/kappa, cos7 supernatant; also called 7C10 hum 3 heavy chain with humanized 7C10 VL 2
Take B3: the binding result in assay [2] was “binds”.
